Numbering of substitutions follows the chain as printed. Names may count otherwise.
How the values were obtained:
HeLa cells [1] = test: TIRF imaging of PM localization of EGFP-Smad2; assay type: cell-based; details: for PM localization after TGF-β stimulation: HeLa cells with endogenous Smad2 suppressed
Protocol: Figure 4 Quantitative imaging analyses of spatiotemporal dynamics of Smad2.A, TIRF images of mouse EGFP-Smad2-WT transfected into HeLa cells whose endogenous Smad2 is suppressed by siRNA. Images were taken before and 5 min after TGF-β stimulation (10 ng/ml) with and without PI(4,5)P2 depletion. A pseudo-coloring scheme was used with orange and blue representing the highest and the lowest intensity, respectively. B, kinetics of TGF-β stimulated (10 ng/ml) PM localization of EGFP-Smad2-WT (blue), -K420A (green), and -W422A (orange) transfected into HeLa cells the endogenous Smad2 of which was suppressed by siRNA. For EGFP-Smad2-WT, the effect of PI(4,5)P2 depletion (black) and TβRI inhibition by SB-431542 (10 μM for 36 h) (red) were measured. Data points indicate average ±S.D. (n = 10 cells). C, spatially resolved PM PI(4,5)P2 concentration ([PI(4,5)P2]) profiles calculated from two-channel cross-sectional images of HeLa cells (before and 5 min after 10 ng/ml TGF-β stimulation and after PI(4,5)P2 depletion). Each cell is a representative of more than ten cells analyzed. Spatially averaged [PI(4,5)P2] values for each cell type are shown. The z-axis scale indicates [PI(4,5)P2] in mol%. A pseudo-coloring scheme with red and blue representing the highest (1.5 mol%) and the lowest (0 mol%) concentration, respectively, is used to illustrate the spatial [PI(4,5)P2] heterogeneity. Scale bars indicate 10 μm. D, dual color single-molecule tracking of EGFP-PLCδ-PH and SNAP-TMR-labeled TβRI at the PM of HeLa cells. Time courses of the half-life of colocalization for SNAP-TMR-labeled TβRI and EGFP-PLCδ-PH after 10 ng/ml TGF-β stimulation were determined with (orange) and without (blue) PI(4,5)P2 depletion. Data points indicate average ±S.D. (n = 10 cells). E, time courses of the half-life of colocalization for SNAP-TMR-labeled TβRI and EGFP-Smad2 determined by dual color single-molecule tracking analysis. Colocalization of TβRI with EGFP-Smad2-WT (blue), -K420A (green), -W422A (orange), E425K (red), Y426A (cyan), and -R427A/R428A (black) transfected into HeLa cells whose endogenous Smad2 was suppressed by siRNA is shown. For EGFP-Smad2-WT, the effect of PI(4,5)P2 depletion (purple) was measured. Data points indicate average ±S.D. (n = 10 cells). […] TEXT PRINTED IN THE PICTURE: (C) PI(4,5)P2: [PI(4,5)P2] = 1.05 ± 0.20 mol% (HeLa unstimulated); [PI(4,5)P2] = 1.00 ± 0.40 mol% (HeLa 5 min after TGFβ); [PI(4,5)P2] = 0.16 ± 0.08 mol% (HeLa After PI(4,5)P2 depletion) DOUBTS OF THE COPYIST ABOUT THIS PICTURE: Panel C: the printed values are measured membrane concentrations of PI(4,5)P2 in HeLa cells under three conditions, not an activity or property of a compound; it is uncertain whether they count as a result for a substance
Quantitative TIRF microscopy imaging of PM localization of EGFP tagged Smad2 WT and mutants was performed using custom-built internal reflection fluorescence microscope. WT HeLa cells or PI(4,5)P2 depleted HeLa cells were plated on the 8-well chambered cover glass (Lab-Tek, Thermo Fisher Scientific) at the density of 1 × 10^5 for 24 h. Endogenous Smad2 was suppressed using SiRNA and EGFP-Smad2 or mutants were transfected into cells using the jetPRIME system (Polyplus-transfection) according to the manufacturer's protocols. The transfected HeLa cells were serum starved for 16 h prior imaging. PM-bound EGFP-Smad2 fraction was monitored before and after stimulation with 10 ng/ml TGF-β up to 15 min. For EGFP-Smad2 WT, the effect of TβRI inhibition was monitored by incubating cells with 10 μM of SB-431542 for 36 h. Image analysis was performed using Image J software. Mean intensity of the EGFP-Smad2 signal was calculated for each time point, and final graph was plot by subtracting the mean intensity at 0 min from the mean intensity of each time point. More than ten cells were analyzed for each data point.

HeLa cells [2] = test: Confocal imaging of Smad2 localization; assay type: cell-based
Protocol: Supplemental Fig. S1. Confocal images of endogenous Smad2 and exogenously expressed EGFP-Smad2 in HeLa cells before (A) and 10 min after (B) TGF-β stimulation.
Endogenous Smad2 images were obtained by immunostaining using the Smad2-specific antibody. 10 ng/ml TGF-β was used for stimulation. Scale bars indicate 10 μm.
Supplemental Fig. S2. Suppression of endogenous Smad2 expression in HeLa cells by siRNA.
Western blot analysis showing that expression of endogenous Smad2 in HeLa cells was successfully suppressed by siRNA. 30 nM siRNA-3 was routinely used for knockdown experiments. For re-introduction of mouse Smad2 to these cells, see Fig. 5A. Glyceraldehyde 3-phosphate dehydrogenase (GAPDH) was used as a gel loading control. […]

B1: Smad2-W422A: W422A mutant of full-length Smad2; specific PI(4,5)P2 binding-compromised (protein)
chain: MSSILPFTPPVVKRLLGWKKSAGGSGGAGGGEQNGQEEKWCEKAVKSLVKKLKKTGRLDELEKAITTQNCNTKCVTIPSTCSEIWGLSTANTVDQWDTTGLYSFSEQTRSLDGRLQVSHRKGLPHVIYCRLWRWPDLHSHHELKAIENCEYAFNLKKDEVCVNPYHYQRVETPVLPPVLVPRHTEILTELPPLDDYTHSIPENTNFPAGIEPQSNYIPETPPPGYISEDGETSDQQLNQSMDTGSPAELSPTTLSPVNHSLDLQPVTYSEPAFWCSIAYYELNQRVGETFHASQPSLTVDGFTDPSNSERFCLGLLSNVNRNATVEMTRRHIGRGVRLYYIGGEVFAECLSDSAIFVQSPNCNQRYGWHPATVCKIPPGCNLKIFNNQEFAALLAQSVNQGFEAVYQLTRMCTIRMSFVKGAGAEYRRQTVTSTPCWIELHLNGPLQWLDKVLTQMGSPSVRCSSMS
modifications: left off: His6, N-terminal, state not stated
HeLa cells [1]; 10 ng/ml TGF-β
  PM localization after TGF-β stimulation: little PM localization

B2: Smad2-K420A: K420A mutant of full-length Smad2; predominantly TβRI binding-compromised (protein)
chain: B1 chain with K420A, A422W
modifications: left off: His6, N-terminal, state not stated
HeLa cells [1]; 10 ng/ml TGF-β
  PM localization after TGF-β stimulation: able to migrate to the PM as fast as WT
HeLa cells [1]; HeLa cells, 10 ng/ml TGF-β, SB-431542 10 μM for 36 h where used
  PM residence / dissociation of Smad2: slow dissociation

B3: Smad2 WT: bacterially expressed full-length Smad2 wild-type (protein)
chain: B1 chain with A422W
modifications: left off: His6, N-terminal, state not stated
notes: bacterially expressed full-length Smad2 wild-type
HeLa cells [1]; HeLa cells, 10 ng/ml TGF-β
  time of peak PM translocation after TGF-β stimulation: 5 min
HeLa cells [1]; HeLa cells, rapamycin-induced Inp54 recruitment
  PM translocation after PI(4,5)P2 depletion: abrogated

B4: EGFP-Smad2 WT: mouse EGFP-Smad2 wild type transfected into HeLa cells (protein, UniProt Q62432 2-467, looked up)
Mothers against …: SSILPFTPPVVKRLLGWKKSAGGSGGAGGGEQNGQEEKWCEKAVKSLVKKLKKTGRLDELEKAITTQNCNTKCVTIPSTCSEIWGLSTANTVDQWDTTGLYSFSEQTRSLDGRLQVSHRKGLPHVIYCRLWRWPDLHSHHELKAIENCEYAFNLKKDEVCVNPYHYQRVETPVLPPVLVPRHTEILTELPPLDDYTHSIPENTNFPAGIEPQSNYIPETPPPGYISEDGETSDQQLNQSMDTGSPAELSPTTLSPVNHSLDLQPVTYSEPAFWCSIAYYELNQRVGETFHASQPSLTVDGFTDPSNSERFCLGLLSNVNRNATVEMTRRHIGRGVRLYYIGGEVFAECLSDSAIFVQSPNCNQRYGWHPATVCKIPPGCNLKIFNNQEFAALLAQSVNQGFEAVYQLTRMCTIRMSFVKGWGAEYRRQTVTSTPCWIELHLNGPLQWLDKVLTQMGSPSVRCSSMS
modifications: EGFP fusion
notes: mouse EGFP-Smad2 wild type transfected into HeLa cells
HeLa cells [2]
  localization in unstimulated cells: mostly distributed in the cytoplasm with little prelocalization to the PM
HeLa cells [1]; 10 ng/ml TGF-β
  PM localization after TGF-β stimulation: clearly visible
